From patent publication US9920082B2, “Water-soluble complexing agents and corresponding lanthanide complexes” (CISBIO BIOASSAYS, priority 2013, dated 2018)

How the values were obtained:
[1] = Photophysical properties of the complexes (λ max, quantum yield, life-time); format: physicochemical; details: solvent MeOH
Text: The photophysical characteristics of some complexes are described in Table 3. […] The values of the quantum yields (Φcm) must be considered to have a margin of error of ±15%. All these complexes have quantum yields above 10%, without adding potassium fluorides. The life-times (τ0) are at least 0.7 ms, which is favorable for FRET experiments. Finally, the complexes comprising solubilizer groups of the sulfonate or carboxylate type are highly soluble in aqueous biological buffers. The presence of charges makes complexes water-soluble that were not so initially.

[2] = Determination of Log P (octanol/water partition coefficient) of europium complexes; format: physicochemical; details: water/octanol mixtures 2:1, 1:1, 1:2, about 2 μM, ±20%
Text: Log P is a measure of the differential solubility of chemical compounds in two solvents (octanol/water partition coefficient). Log P is equal to the logarithm of the ratio of the concentrations of the substance under investigation in octanol and in water. Log P=Log(Coct/Cwater). This value ascertains the hydrophilic or hydrophobic (lipophilic) character of a molecule. In fact, if Log P is positive and very high, this expresses the fact that the molecule considered is far more soluble in octanol than in water, which reflects its lipophilic character, and vice versa. Zero or negative Log P signifies that the molecule is of a hydrophilic character.
Three equimolar solutions of europium complex were prepared in methanol. The solvent was removed under reduced pressure and the solid that remained was dissolved and stirred for 24 h in a water/octanol mixture (2:1, 1:1, 1:2), (0.9 mL) giving a total concentration of about 2 μM. After equilibration, an emission spectrum of each phase was recorded in methanol (50 μL of solution in 1 mL of methanol). For each mixture, the value of log P was calculated using the following equation: […]

## COc1ccc(C#Cc2cc(CN3CCN(Cc4cc(C#Cc5ccc(OC)cc5)cc(P(C)(=O)O)n4)CCN(Cc4cc(C#Cc5ccc(OCC(=O)NCC(=O)N[C@@H](CCCNC(=N)N)C(=O)N[C@@H](CCCNC(=N)N)C(=O)N[C@@H](CCCNC(=N)N)C(=O)N[C@@H](CCCNC(=N)N)C(=O)N[C@@H](CCCNC(=N)N)C(=O)N[C@@H](CCCNC(=N)N)C(=O)N[C@@H](CCCNC(=N)N)C(=O)O)cc5)cc(P(C)(=O)O)n4)CC3)nc(P(C)(=O)O)c2)cc1 [Compound 89]
[1]
  λ max: 330 nm
  τ0: 1.12 ms
[1]; margin of error ±15%
  Φem: 50%
[2]
  logP: 0.3
